Reference: patent US20260266848A1, “COMPOSITIONS AND METHODS FOR DIAGNOSING AND TREATING DYSTONIA” (Duke University, priority 2023, published 2026)

How the values were obtained:
DYT-TOR1A MEF EVs = assay: Quantitative LC-MS/MS proteomics of EVs from drug-treated DYT-TOR1A MEF cultures (ritonavir, salubrinal); type: cell-based, mouse; set-up: key to RTV Corrective Direction / RTV Corrective Direction, Grwd1 / RTV Corrective Direction, Srrm2 / RTV Corrective Direction, Rbm17 / RTV Corrective Direction, Dcaf8 / RTV Corrective Direction, Edil3 / RTV Corrective Direction, Timp3 / RTV Corrective Direction, Heatr3 / RTV Corrective Direction, Brd4 / RTV Corrective Direction, P3h4 / RTV Corrective Direction, Pacsin3 / RTV Corrective Direction, Naa50 / RTV Corrective Direction, Lpar6 / RTV Corrective Direction, Ndrg1 / RTV Corrective Direction, Kntc1 / RTV Corrective Direction, Cdk11b / RTV Corrective Direction, Sumo1 / RTV Corrective Direction, Lsm4 / RTV Corrective Direction, Hmga2 / RTV Corrective Direction, Cstf1 / RTV Corrective Direction, Tes / RTV Corrective Direction, Sbno1 / RTV Corrective Direction, Unc119b / RTV Corrective Direction, Cfdp1 / RTV Corrective Direction, Sec61b: YES = protein abundance effect opposite to DYT/WT; settings: EV protein abundance; for RTV Corrective Direction: DYT + RTV (ritonavir) vs DYT, direction compared with DYT/WT; for DYT + RTV/DYT Cohen's d: ritonavir (RTV)-treated DYT vs DYT
WT MEF EVs = assay: Quantitative LC-MS/MS proteomics of EVs from ISRIB-treated WT MEF cultures; type: cell-based, mouse; set-up: key to ISRIB and DYT Parallel Direction / ISRIB and DYT Parallel Direction, Ctdsp1 / ISRIB and DYT Parallel Direction, Pcdh19 / ISRIB and DYT Parallel Direction, Tspan7 / ISRIB and DYT Parallel Direction, Myo1e / ISRIB and DYT Parallel Direction, Plpp3 / ISRIB and DYT Parallel Direction, Sh3bp4 / ISRIB and DYT Parallel Direction, Dnajc7 / ISRIB and DYT Parallel Direction, Drg1 / ISRIB and DYT Parallel Direction, Maea: YES = protein abundance effect similar to DYT/WT; settings: EV protein abundance; for WT + ISRIB/WT Cohen's d: ISRIB-treated WT vs WT; for ISRIB and DYT Parallel Direction: WT + ISRIB vs WT, direction compared with DYT/WT

| Molecule | RTV Corrective Direction (DYT-TOR1A MEF EVs) | DYT + RTV/DYT Cohen's d (DYT-TOR1A MEF EVs) | WT + ISRIB/WT Cohen's d (WT MEF EVs) | ISRIB and DYT Parallel Direction (WT MEF EVs) |
| --- | --- | --- | --- | --- |
| Cxadr (protein, UniProt P97792 20-365, looked up) Coxsackievirus and adenovirus …: LSITTPEQRIEKAKGETAYLPCKFTLSPEDQGPLDIEWLISPSDNQIVDQVIILYSGDKIYDNYYPDLKGRVHFTSNDVKSGDASINVTNLQLSDIGTYQCKVKKAPGVANKKFLLTVLVKPSGTRCFVDGSEEIGNDFKLKCEPKEGSLPLQFEWQKLSDSQTMPTPWLAEMTSPVISVKNASSEYSGTYSCTVQNRVGSDQCMLRLDVVPPSNRAGTIAGAVIGTLLALVLIGAILFCCHRKRREEKYEKEVHHDIREDVPPPKSRTSTARSYIGSNHSSLGSMSPSNMEGYSKTQYNQVPSEDFERAPQSPTLAPAKVAAPNLSRMGAVPVMIPAQSKDGSIV | YES | 3.88 | 1.72 |  |
| Pdia3 (protein, UniProt P27773 25-505, looked up) Protein disulfide-isomerase A3: SDVLELTDENFESRVSDTGSAGLMLVEFFAPWCGHCKRLAPEYEAAATRLKGIVPLAKVDCTANTNTCNKYGVSGYPTLKIFRDGEEAGAYDGPRTADGIVSHLKKQAGPASVPLRTEEEFKKFISDKDASVVGFFRDLFSDGHSEFLKAASNLRDNYRFAHTNIESLVKEYDDNGEGITIFRPLHLANKFEDKTVAYTEKKMTSGKIKKFIQDSIFGLCPHMTEDNKDLIQGKDLLTAYYDVDYEKNAKGSNYWRNRVMMVAKKFLDAGHKLNFAVASRKTFSHELSDFGLESTTGEVPVVAIRTAKGEKFVMQEEFSRDGKALEQFLQEYFDGNLKRYLKSEPIPESNEGPVKVVVAENFDDIVNEEDKDVLIEFYAPWCGHCKNLEPKYKELGEKLSKDPNIVIAKMDATANDVPSPYEVKGFPTIYFSPANKKLTPKKYEGGRELNDFISYLQREATNPPIIQEEKPKKKKKAQEDL | YES | 0.37 | 0.39 | YES |
| Atg7 (protein, UniProt Q9D906 1-698, looked up) Ubiquitin-like …: MGDPGLAKLQFAPFNSALDVGFWHELTQKKLNEYRLDEAPKDIKGYYYNGDSAGLPTRLTLEFSAFDMSASTPAHCCPAMGTLHNTNTLEAFKTADKKLLLEQSANEIWEAIKSGAALENPMLLNKFLLLTFADLKKYHFYYWFCCPALCLPESIPLIRGPVSLDQRLSPKQIQALEHAYDDLCRAEGVTALPYFLFKYDDDTVLVSLLKHYSDFFQGQRTKITVGVYDPCNLAQYPGWPLRNFLVLAAHRWSGSFQSVEVLCFRDRTMQGARDVTHSIIFEVKLPEMAFSPDCPKAVGWEKNQKGGMGPRMVNLSGCMDPKRLAESSVDLNLKLMCWRLVPTLDLDKVVSVKCLLLGAGTLGCNVARTLMGWGVRHVTFVDNAKISYSNPVRQPLYEFEDCLGGGKPKALAAAERLQKIFPGVNARGFNMSIPMPGHPVNFSDVTMEQARRDVEQLEQLIDNHDVIFLLMDTRESRWLPTVIAASKRKLVINAALGFDTFVVMRHGLKKPKQQGAGDLCPSHLVAPADLGSSLFANIPGYKLGCYFCNDVVAPGDSTRDRTLDQQCTVSRPGLAVIAGALAVELMVSVLQHPEGGYAIASSSDDRMNEPPTSLGLVPHQIRGFLSRFDNVLPVSLAFDKCTACSPKVLDQYEREGFTFLAKVFNSSHSFLEDLTGLTLLHQETQAAEIWDMSDEETV | YES | 0.61 | −2.35 | YES |
| Nap1l4 (protein, UniProt Q78ZA7 2-375, looked up) Nucleosome assembly protein …: AENSLSDGGPADSVEAAKNASNTEKLTDQVMQNPQVLAALQERLDNVSHTPSSYIETLPKAVKRRINALKQLQVRCAHIEAKFYEEVHDLERKYAALYQPLFDKRREFITGDVEPTDAESAWHSENEEEDKLAGDMKNKVVIAEKEAATVEELNPKGIPEFWFTIFRNVDMLSELVQEYDEPILKHLQDIKVKFSDPGQPMSFVLEFHFEPNDYFTNPVLTKTYKMKSEPDKADPFSFEGPEIVDCDGCTIDWKKGKNVTVKTIKKKQKHKGRGTVRTITKQVPNESFFNFFSPLKASGDGESLDEDSEFTLASDFEIGHFFRERIVPRAVLYFTGEAIEDDDNFEEGEEGEEEELEGDEEGEDEDDADVNPKV | YES | 5.74 | 2.43 |  |
| Ptk2 (protein, UniProt P34152 2-1052, looked up) Focal adhesion kinase 1: AAAYLDPNLNHTPSSSTKTHLGTGMERSPGAMERVLKVFHYFESSSEPTTWASIIRHGDATDVRGIIQKIVDSHKVKHVACYGFRLSHLRSEEVHWLHVDMGVSSVREKYELAHPPEEWKYELRIRYLPKGFLNQFTEDKPTLNFFYQQVKSDYMQEIADQVDQEIALKLGCLEIRRSYWEMRGNALEKKSNYEVLEKDVGLKRFFPKSLLDSVKAKTLRKLIQQTFRQFANLNREESILKFFEILSPVYRFDKECFKCALGSSWIISVELAIGPEEGISYLTDKGCNPTHLADFNQVQTIQYSNSEDKDRKGMLQLKIAGAPEPLTVTAPSLTIAENMADLIDGYCRLVNGATQSFIIRPQKEGERALPSIPKLANSEKQGMRTHAVSVSETDDYAEIIDEEDTYTMPSTRDYEIQRERIELGRCIGEGQFGDVHQGVYLSPENPALAVAIKTCKNCTSDSVREKFLQEALTMRQFDHPHIVKLIGVITENPVWIIMELCTLGELRSFLQVRKYSLDLASLILYAYQLSTALAYLESKRFVHRDIAARNVLVSSNDCVKLGDFGLSRYMEDSTYYKASKGKLPIKWMAPESINFRRFTSASDVWMFGVCMWEILMHGVKPFQGVKNNDVIGRIENGERLPMPPNCPPTLYSLMTKCWAYDPSRRPRFTELKAQLSTILEEEKVQQEERMRMESRRQATVSWDSGGSDEAPPKPSRPGYPSPRSSEGFYPSPQHMVQTNHYQVSGYPGSHGIPAMAGSIYQGQASLLDQTELWNHRPQEMSMWQPSVEDSAALDLRGMGQVLPPHLMEERLIRQQQEMEEDQRWLEKEERFLKPDVRLSRGSIDREDGSFQGPTGNQHIYQPVGKPDPAAPPKKPPRPGAPGHLSNLSSISSPADSYNEGVKLQPQEISPPPTANLDRSNDKVYENVTGLVKAVIEMSSKIQPAPPEEYVPMVKEVGLALRTLLATVDETIPALPASTHREIEMAQKLLNSDLGELISKMKLAQQYVMTSLQQEYKKQMLTAAHALAVDAKNLLDVIDQARLKMLGQTRPH | YES | 0.10 | −3.26 | YES |
| Dbi (protein, UniProt P31786 2-87, looked up) Acyl-CoA-binding protein: SQAEFDKAAEEVKRLKTQPTDEEMLFIYSHFKQATVGDVNTDRPGLLDLKGKAKWDSWNKLKGTSKESAMKTYVEKVDELKKKYGI | YES | 0.91 | −2.44 | YES |
| Adamts5 (protein, UniProt Q9R001 262-930, looked up) A disintegrin and …: SISRARQVELLLVADSSMARMYGRGLQHYLLTLASIANRLYSHASIENHIRLAVVKVVVLTDKDTSLEVSKNAATTLKNFCKWQHQHNQLGDDHEEHYDAAILFTREDLCGHHSCDTLGMADVGTICSPERSCAVIEDDGLHAAFTVAHEIGHLLGLSHDDSKFCEENFGTTEDKRLMSSILTSIDASKPWSKCTSATITEFLDDGHGNCLLDLPRKQILGPEELPGQTYDATQQCNLTFGPEYSVCPGMDVCARLWCAVVRQGQMVCLTKKLPAVEGTPCGKGRVCLQGKCVDKTKKKYYSTSSHGNWGSWGPWGQCSRSCGGGVQFAYRHCNNPAPRNSGRYCTGKRAIYRSCSVTPCPPNGKSFRHEQCEAKNGYQSDAKGVKTFVEWVPKYAGVLPADVCKLTCRAKGTGYYVVFSPKVTDGTECRPYSNSVCVRGRCVRTGCDGIIGSKLQYDKCGVCGGDNSSCTKIIGTFNKKSKGYTDVVRIPEGATHIKVRQFKAKDQTRFTAYLALKKKTGEYLINGKYMISTSETIIDINGTVMNYSGWSHRDDFLHGMGYSATKEILIVQILATDPTKALDVRYSFFVPKKTTQKVNSVISHGSNKVGPHSTQLQWVTGPWLACSRTCDTGWHTRTVQCQDGNRKLAKGCLLSQRPSAFKQCLLKKC | YES | 0.76 | −2.06 | YES |
| Extl2 (protein, UniProt Q9ES89 1-330, looked up) Exostosin-like 2: MMRGCHICKLPGRVMGIRVLRFSLVVILVLLLVAGALTNLLPNIKEDKMLTLRREIKSPSKSALDSFTLIMQTYNRTDLLLRLLNHYQAVPSLHKVIVVWNNVGEKGPEELWNSLGPHPIPVIFKPQTANKMRNRLQVFPEVETNAVLMVDDDTLISAQDLVFAFSIWQQFPDQIIGFVPRKHVSTSSGIYSYGGFELQTPGPGNGDQYSMVLIGASFFNSKYLELFQKQPAAVHALIDETQNCDDIAMNFLVTRHTGKPSGIFVKPINMVNLEKETNGYSGMWHRAEHFLQRSYCINKLVNIYDGMPLKYSNIMISQFGFPYANHKSKM | YES | 0.12 | −1.42 | YES |
| Alad (protein, UniProt P10518 1-330, looked up) Delta-aminolevulinic acid …: MHHQSVLHSGYFHPLLRSWQTAASTVSASNLIYPIFVTDVPDDVQPIASLPGVARYGVNQLEEMLRPLVEAGLRCVLIFGVPSRVPKDEQGSAADSEDSPTIEAVRLLRKTFPSLLVACDVCLCPYTSHGHCGLLSENGAFLAEESRQRLAEVALAYAKAGCQVVAPSDMMDGRVEAIKAALLKHGLGNRVSVMSYSAKFASCFYGPFRDAAQSSPAFGDRRCYQLPPGARGLALRAVARDIQEGADMLMVKPGLPYLDMVREVKDKHPELPLAVYQVSGEFAMLWHGAQAGAFDLRTAVLETMTAFRRAGADIIITYFAPQLLKWLKEE | YES | 1.57 | −1.50 | YES |
